Where a chain is given by its changes, count along the chain named.
T1: human LRRC15 expressed on cells (human, UniProt Q8TF66 22-581)
T1 construct: whole, on cells; On HEK293 cells transfected with LRRC15/ZsGreen1 (Retrogenix), on HT29 cells transfected with human LRRC15, and endogenous on Saos-2; also called LRRC15/ZsGreen1 transfected HEK293 cells; HT29-LRRC15
T1 sequence (looked up): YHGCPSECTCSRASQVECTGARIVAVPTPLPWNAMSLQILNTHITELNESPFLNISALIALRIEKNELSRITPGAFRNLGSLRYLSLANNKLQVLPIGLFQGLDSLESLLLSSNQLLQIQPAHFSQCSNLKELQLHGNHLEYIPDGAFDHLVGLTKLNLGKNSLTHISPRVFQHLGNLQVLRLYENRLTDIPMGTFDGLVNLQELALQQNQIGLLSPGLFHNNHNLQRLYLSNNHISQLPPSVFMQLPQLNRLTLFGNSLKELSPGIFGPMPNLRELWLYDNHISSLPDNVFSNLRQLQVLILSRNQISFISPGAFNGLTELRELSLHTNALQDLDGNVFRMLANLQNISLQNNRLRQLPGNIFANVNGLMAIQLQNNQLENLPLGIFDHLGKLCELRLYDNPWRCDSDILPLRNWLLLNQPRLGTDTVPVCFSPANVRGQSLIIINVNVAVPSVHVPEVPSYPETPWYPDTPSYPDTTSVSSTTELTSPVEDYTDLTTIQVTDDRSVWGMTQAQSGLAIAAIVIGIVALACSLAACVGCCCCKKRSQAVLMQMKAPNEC

T2: human LRRC15 extracellular domain with C-terminal His tag (human, UniProt Q8TF66 22-538)
T2 construct: Recombinant, made in HEK293; the entry holds the extracellular domain and the His tag; SPR analyte; also called TPP-1545; hLRRC15 CT-His
T2 sequence: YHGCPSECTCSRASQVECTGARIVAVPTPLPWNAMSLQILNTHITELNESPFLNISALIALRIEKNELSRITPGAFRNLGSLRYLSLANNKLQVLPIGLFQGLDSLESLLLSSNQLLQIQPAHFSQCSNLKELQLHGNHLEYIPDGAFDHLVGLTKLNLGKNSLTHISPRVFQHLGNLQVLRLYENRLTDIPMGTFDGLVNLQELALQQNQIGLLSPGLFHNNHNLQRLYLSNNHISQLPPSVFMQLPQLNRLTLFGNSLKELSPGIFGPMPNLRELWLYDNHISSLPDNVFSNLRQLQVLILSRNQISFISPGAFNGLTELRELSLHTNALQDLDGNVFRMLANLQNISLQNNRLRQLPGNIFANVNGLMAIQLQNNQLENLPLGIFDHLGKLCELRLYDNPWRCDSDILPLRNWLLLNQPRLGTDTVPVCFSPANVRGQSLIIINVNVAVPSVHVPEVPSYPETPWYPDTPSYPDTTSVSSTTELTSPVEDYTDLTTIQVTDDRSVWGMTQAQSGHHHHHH

T3: cynomolgus (Macaca fascicularis) LRRC15 extracellular domain with C-terminal His tag (cynomolgus monkey (Macaca fascicularis), UniProt Q8TF66 22-538 (human entry))
T3 construct: Recombinant, made in HEK293; the entry holds the extracellular domain and the His tag; SPR analyte; also called TPP-9046
T3 chain: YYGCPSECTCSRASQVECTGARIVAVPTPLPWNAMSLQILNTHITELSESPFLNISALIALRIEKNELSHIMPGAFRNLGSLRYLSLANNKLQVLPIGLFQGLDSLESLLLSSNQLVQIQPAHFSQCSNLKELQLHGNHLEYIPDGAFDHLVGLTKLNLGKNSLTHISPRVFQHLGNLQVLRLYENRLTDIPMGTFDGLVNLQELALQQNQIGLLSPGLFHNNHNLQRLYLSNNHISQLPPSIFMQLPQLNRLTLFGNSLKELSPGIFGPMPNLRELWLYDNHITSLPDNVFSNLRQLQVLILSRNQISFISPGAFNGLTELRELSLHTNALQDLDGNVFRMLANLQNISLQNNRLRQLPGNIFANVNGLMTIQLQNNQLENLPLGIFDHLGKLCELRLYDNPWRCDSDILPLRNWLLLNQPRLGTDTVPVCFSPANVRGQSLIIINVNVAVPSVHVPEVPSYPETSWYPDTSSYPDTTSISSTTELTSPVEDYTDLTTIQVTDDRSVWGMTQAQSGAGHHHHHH

B1: TPP-12942 (antibody, human IgG1, kappa, V domains shown)
VH: EVQLVQSGAEVKKPGASVKVSCKASGYKFSSYWIEWVKQAPGQGLEWIGEILPGSDTTNYNEKFKDRATFTSDTSINTAYMELSRLRSDDTAVYYCARDRGNYRAWFGYWGQGTLVTVSS
VL: DIQMTQSPSSLSASVGDRVTITCRASQDISNYLNWYQQKPGGAVKFLIYYTSRLHSGVPSRFSGSGSGTDYTLTISSLQPEDFATYFCQQGEALPWTFGGGTKVEIKR
notes: Prior art humanized IgG1 kappa antibody, used as comparator; also called huM25; huM25-hIgG1Kappa
B2: TPP-17078 (antibody, human IgG1, kappa, V domains shown)
VH: B1 VH
VL: B1 VL with D28S, N31S, V44P, T51A, R53S, H55Q, F87Y, E92F, A93S
notes: also called 438H-M308-H05-hIgGkappa
B3: TPP-17421 (antibody, human IgG1, kappa, V domains shown)
VH: B1 VH with T57W, G108Q
VL: B1 VL with D28S, N31S, V44P, T51A, R53S, H55Q, F87Y, E92L, A93E
notes: also called 438H-M306-C11-hIgG1Kappa
B4: TPP-14389 (antibody, human IgG1, kappa, V domains shown)
VH: EVQLLESGGGLVQPGGSLRLSCAASGFTFSGYMMSWVRQAPGKGLEWVSGIYPSPGYTYYADSVKGRFTISRDNSKNTLYLQMNSLRAEDTAVYYCAREKASDLFGSYSEALDYWGQGTLVTVSS
VL: DIQMTQSPDSLSASVGDRVTITCRASQDVGSWLAWYQQKPGKAPKLLIFAASSLESGIPSRFSGSGSGTDFTLTISSLQPEDFATYYCQQANGFPLTFGGGTKVEIKR
notes: also called 13612-rec02-hIgG1Kappa

Target: T1, human LRRC15 expressed on cells
Assay: flow cytometry, transfected HEK293, 0 µg/ml

Binder	Median Fluorescence AF647
B1	594
B2	597
B3	588

Target: T2, human LRRC15 extracellular domain with …
Assay: SPR at 10-37°C (Example 3)
Protocol: (§1) To assess if anti-LRRC-15 antibodies show a difference in binding at different temperatures, binding assays were conducted using surface plasmon resonance (SPR). Binding assays were performed on a Biacore T200 instrument at temperatures of 10° C., 20° C., 25° C. and 37° C. with assay buffer HBS EP+, 1 mg/ml BSA (bovine serum albumine), 300 mM NaCl, 0.05% NaN₃. Antibodies were captured via anti-human Fc IgGs covalently amine coupled to a CM5 sensor chip and human LRRC15 was used as an analyte in a concentration series from 1.56-200 nM in multi cycle kinetics mode. Pre-experiments were conducted to have an equal capture level at each temperature. Obtained sensorgrams were fitted to a 1:1 Langmuir binding model to derive kinetic data.

Binder	Temperature dependent loss in binding affinity [fold]
B4	108
B1	13.8
B2	30.9
B3	5.2

Target: T1, human LRRC15 expressed on cells
Assay: flow cytometry, transfected HEK293, 12.5 µg/ml

Binder	Median Fluorescence AF647
B1	726000
B2	707000
B3	736000

Target: T1, human LRRC15 expressed on cells
Assay: flow cytometry, transfected HEK293, 0.02 µg/ml

Binder	Median Fluorescence AF647
B1	63400
B2	83700
B3	35200

Target: T2, human LRRC15 extracellular domain with …
Assay: SPR Biacore T200, 25°C, antibody captured, LRRC15 analyte
Protocol: (§2) To assess the binding kinetics and affinity of anti-LRRC15 antibodies as well as their species cross-reactivity profile, binding assays were conducted using surface plasmon resonance (SPR). Binding assays were performed on a Biacore T200 instrument at 25° C. using assay buffer HBS EP+, 1 mg/ml BSA, 300 mM NaCl, 0.05% NaN3. Antibodies were captured via anti-human Fc IgGs covalently amine coupled to a CM5 sensor chip and human, mouse and cynomolgus LRRC15 were used as analytes in a concentration series from 1.56-200 nM in multi cycle kinetics mode. […] Obtained sensorgrams were fitted to a 1:1 Langmuir binding model to derive kinetic data.

Binder	Kd [nM]
B4	5.9
B1	25
B2	1.7
B3	0.96

Target: T3, cynomolgus (Macaca fascicularis) LRRC15 …
Assay: as above
Protocol: as §2

Binder	Kd [nM]
B4	9
B1	36
B2	1.8
B3	0.91

Target: T2, human LRRC15 extracellular domain with …
Assay: calculated from SPR kd, 25°C
Protocol: as §1

Binder	Complex Half Life [h]
B4	0.148
B2	2.12
B3	3.63

Target: T1, human LRRC15 expressed on cells
Assay: flow cytometry, transfected HEK293, 0.1 µg/ml

Binder	Median Fluorescence AF647
B1	213000
B2	284000
B3	102000

Source: US20240108766A1 (Bayer, published 2024)
